Where two headings read alike, the source gives them in different places. Ends that are not written are not given here.
Columns and labels:
canine Y5 receptor [1] = molecular target: T1, canine Y5 receptor (canine, UniProt O62729 1-446); test: 125I-PYY displacement, COS-7 membranes
T1 construct: Transiently expressed in COS-7 cells; also called canine (beagle) Y5; BO11
T1 sequence: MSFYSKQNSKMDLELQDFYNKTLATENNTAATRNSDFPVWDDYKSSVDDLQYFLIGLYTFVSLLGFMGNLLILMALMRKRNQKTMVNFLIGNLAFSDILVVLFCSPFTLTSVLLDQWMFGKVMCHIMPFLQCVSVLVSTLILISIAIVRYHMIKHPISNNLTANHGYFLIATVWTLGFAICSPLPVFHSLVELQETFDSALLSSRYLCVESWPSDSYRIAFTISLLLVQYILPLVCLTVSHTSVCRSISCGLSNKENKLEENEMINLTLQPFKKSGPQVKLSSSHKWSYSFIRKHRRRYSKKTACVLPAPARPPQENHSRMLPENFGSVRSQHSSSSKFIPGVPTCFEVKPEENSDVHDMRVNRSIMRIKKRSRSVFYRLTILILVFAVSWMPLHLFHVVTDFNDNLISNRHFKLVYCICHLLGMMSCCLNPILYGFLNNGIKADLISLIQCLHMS

rat Y4 receptor [2] = molecular target: T2, rat Y4 receptor (rat, UniProt Q63447 1-375); test: 125I-PYY displacement, COS-7 membranes
T2 construct: whole, on cells; also called rY4

[3] = molecular target: T3, rat hypothalamic Y5 receptor (rat, UniProt Q63634 1-445); test: 125I-PYY displacement, COS-7 membranes
T3 construct: Expressed transiently in COS-7 or stably in 293 cells; also called rat Y5; CG-18
T3 sequence: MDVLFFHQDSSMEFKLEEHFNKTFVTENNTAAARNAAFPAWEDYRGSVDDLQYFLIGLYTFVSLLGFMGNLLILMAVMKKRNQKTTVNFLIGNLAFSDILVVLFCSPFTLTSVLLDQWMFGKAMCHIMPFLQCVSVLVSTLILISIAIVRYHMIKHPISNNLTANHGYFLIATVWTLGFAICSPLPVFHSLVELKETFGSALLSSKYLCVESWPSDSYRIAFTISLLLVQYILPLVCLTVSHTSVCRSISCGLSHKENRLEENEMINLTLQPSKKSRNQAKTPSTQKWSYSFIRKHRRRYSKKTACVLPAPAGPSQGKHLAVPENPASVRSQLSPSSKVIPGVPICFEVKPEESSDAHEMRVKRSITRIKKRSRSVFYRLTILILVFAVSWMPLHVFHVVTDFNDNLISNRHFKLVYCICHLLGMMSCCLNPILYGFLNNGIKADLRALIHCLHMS

rat Y4 receptor [4] = molecular target: T2, rat Y4 receptor; test: 125I-PYY displacement, COS-7 membranes; remark: listed apart in the source
[5] = molecular target: T3, rat hypothalamic Y5 receptor; test: 125I-PYY displacement, COS-7 membranes; remark: listed apart in the source
canine Y5 receptor [6] = molecular target: T1, canine Y5 receptor; test: 125I-PYY displacement, COS-7 membranes; remark: listed apart in the source
[7] = molecular target: T3, rat hypothalamic Y5 receptor; test: 125I-PYY displacement, COS-7 membranes; remark: listed apart in the source
rat Y1 receptor = molecular target: T4, rat Y1 receptor (rat, UniProt P21555 1-382); test: 125I-PYY displacement, COS-7 membranes
T4 construct: whole, on cells; also called rY1
T4 sequence (looked up): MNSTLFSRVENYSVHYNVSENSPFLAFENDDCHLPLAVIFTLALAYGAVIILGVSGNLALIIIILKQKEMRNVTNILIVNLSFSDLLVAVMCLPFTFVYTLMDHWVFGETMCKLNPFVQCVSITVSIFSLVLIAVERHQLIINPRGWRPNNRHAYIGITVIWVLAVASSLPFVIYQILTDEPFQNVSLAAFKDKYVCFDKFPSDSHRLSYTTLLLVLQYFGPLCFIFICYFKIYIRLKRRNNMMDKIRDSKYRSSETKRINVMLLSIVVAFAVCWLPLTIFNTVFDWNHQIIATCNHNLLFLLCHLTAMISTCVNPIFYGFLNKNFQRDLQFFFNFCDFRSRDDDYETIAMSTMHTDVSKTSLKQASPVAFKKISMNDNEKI

human Y5 receptor [8] = molecular target: T5, human Y5 receptor (human, UniProt Q15761 1-445); test: 125I-PYY3-36 displacement, LM(tk-) membranes
T5 construct: also called CG-19; hY5
T5 sequence: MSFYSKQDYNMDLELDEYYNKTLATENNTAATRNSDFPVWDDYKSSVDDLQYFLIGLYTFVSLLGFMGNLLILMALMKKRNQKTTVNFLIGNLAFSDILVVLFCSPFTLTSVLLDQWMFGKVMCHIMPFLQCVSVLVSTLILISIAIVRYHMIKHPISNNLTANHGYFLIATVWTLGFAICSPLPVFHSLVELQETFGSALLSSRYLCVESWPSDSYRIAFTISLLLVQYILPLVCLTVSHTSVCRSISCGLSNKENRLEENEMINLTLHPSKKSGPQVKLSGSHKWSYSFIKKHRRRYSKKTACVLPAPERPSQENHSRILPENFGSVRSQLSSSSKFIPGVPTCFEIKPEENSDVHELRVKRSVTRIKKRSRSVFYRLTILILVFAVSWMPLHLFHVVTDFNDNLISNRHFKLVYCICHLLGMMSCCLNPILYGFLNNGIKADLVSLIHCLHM

human Y5 receptor [9] = molecular target: T5, human Y5 receptor; test: 125I-PYY displacement, COS-7 membranes
human Y5 receptor [10] = molecular target: T5, human Y5 receptor; test: 125I-PYY displacement, LM(tk-) membranes
[11] = molecular target: T3, rat hypothalamic Y5 receptor; test: cell-based or functional assay
human Y5 receptor [12] = molecular target: T5, human Y5 receptor; test: cell-based or functional assay
human Y4 receptor [13] = molecular target: T6, human Y4 receptor (human, UniProt P50391 1-375); test: 125I-PYY displacement, COS-7 membranes
T6 construct: whole, on cells

human Y1 receptor [14] = molecular target: T7, human Y1 receptor (human, UniProt P25929 1-384); test: 125I-PYY displacement, COS-7 membranes
T7 construct: whole, on cells; stably transfected 293 cells for function
T7 sequence (looked up): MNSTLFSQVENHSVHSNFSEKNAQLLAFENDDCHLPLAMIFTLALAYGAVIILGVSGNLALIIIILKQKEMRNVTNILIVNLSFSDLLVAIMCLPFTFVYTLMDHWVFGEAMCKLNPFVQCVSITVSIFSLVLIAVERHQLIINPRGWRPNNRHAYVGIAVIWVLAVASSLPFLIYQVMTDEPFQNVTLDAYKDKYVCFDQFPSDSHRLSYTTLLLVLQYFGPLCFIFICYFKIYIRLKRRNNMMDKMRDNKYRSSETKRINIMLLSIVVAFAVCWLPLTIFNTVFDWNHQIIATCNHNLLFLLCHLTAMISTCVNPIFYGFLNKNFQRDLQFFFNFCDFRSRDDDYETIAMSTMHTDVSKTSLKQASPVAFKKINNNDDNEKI

human Y5 receptor [15] = molecular target: T5, human Y5 receptor; test: 125I-PYY displacement, COS-7 membranes; remark: listed apart in the source
human Y4 receptor [16] = molecular target: T6, human Y4 receptor; test: 125I-PYY displacement, COS-7 membranes; remark: listed apart in the source
human Y1 receptor [17] = molecular target: T7, human Y1 receptor; test: 125I-PYY displacement, COS-7 membranes; remark: listed apart in the source
rat Y2 receptor = molecular target: T8, rat Y2 receptor (rat, UniProt Q9ERC0 1-381); test: 125I-PYY displacement, COS-7 membranes
T8 construct: whole, on cells; also called rY2
T8 sequence: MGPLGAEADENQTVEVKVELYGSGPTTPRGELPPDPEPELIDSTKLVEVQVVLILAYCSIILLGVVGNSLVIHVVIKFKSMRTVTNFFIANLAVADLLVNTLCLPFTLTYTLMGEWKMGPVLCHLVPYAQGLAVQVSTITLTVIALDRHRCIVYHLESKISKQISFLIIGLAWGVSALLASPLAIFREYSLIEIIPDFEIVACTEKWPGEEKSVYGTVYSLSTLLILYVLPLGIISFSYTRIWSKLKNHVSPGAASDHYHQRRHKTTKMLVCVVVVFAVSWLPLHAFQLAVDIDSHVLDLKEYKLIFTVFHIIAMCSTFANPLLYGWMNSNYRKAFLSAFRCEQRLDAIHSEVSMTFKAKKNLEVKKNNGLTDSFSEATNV

human Y2 receptor [18] = molecular target: T9, human Y2 receptor (human, UniProt P49146 1-381); test: 125I-PYY displacement, COS-7 membranes
T9 construct: whole, on cells
T9 sequence (looked up): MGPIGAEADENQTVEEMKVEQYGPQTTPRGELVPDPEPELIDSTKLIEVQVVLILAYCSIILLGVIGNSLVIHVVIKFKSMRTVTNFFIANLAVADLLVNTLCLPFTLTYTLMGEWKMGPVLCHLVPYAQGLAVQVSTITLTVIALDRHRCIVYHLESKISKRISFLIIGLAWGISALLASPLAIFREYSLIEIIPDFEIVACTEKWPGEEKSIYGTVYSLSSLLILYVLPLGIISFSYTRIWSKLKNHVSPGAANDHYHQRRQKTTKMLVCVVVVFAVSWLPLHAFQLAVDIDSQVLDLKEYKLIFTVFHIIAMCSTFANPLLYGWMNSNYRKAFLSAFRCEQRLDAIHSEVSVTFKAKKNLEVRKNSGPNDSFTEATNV

human Y2 receptor [19] = molecular target: T9, human Y2 receptor; test: 125I-PYY displacement, COS-7 membranes; remark: listed apart in the source

T6 sequence (P50391 whole entry): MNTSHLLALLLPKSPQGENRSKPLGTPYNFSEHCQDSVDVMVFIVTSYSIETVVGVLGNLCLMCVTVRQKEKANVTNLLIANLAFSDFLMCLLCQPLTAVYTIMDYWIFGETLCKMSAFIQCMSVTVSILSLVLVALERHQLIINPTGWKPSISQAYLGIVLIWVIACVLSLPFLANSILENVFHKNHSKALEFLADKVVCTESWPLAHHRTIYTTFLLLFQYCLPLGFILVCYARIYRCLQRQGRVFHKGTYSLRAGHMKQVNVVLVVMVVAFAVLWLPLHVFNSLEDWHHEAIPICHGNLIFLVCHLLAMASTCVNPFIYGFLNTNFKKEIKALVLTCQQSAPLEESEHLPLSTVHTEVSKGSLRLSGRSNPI
T2 sequence (Q63447 whole entry): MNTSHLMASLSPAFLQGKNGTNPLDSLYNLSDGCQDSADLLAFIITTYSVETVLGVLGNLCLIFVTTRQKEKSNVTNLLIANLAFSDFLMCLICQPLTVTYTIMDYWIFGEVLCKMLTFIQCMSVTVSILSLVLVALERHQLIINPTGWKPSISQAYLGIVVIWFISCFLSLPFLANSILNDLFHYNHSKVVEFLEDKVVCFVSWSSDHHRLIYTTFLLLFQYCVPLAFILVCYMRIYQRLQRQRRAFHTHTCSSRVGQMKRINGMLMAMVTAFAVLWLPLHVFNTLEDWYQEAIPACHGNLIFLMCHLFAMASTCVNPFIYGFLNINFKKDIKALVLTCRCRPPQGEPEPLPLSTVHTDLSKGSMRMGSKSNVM

B1: human PP (peptide, UniProt P01298 30-65, looked up)
peptide: APLEPVYPGDNATPEQMAQYAADLRRYINMLTRPRY
notes: mature; also called PP, human; human pancreatic polypeptide
Canine Y5 receptor [1]
  Ki: < 10 nM
Rat Y4 receptor [2]
  Ki: < 0.2 nM
[3]
  Ki: 5 nM
Rat Y4 receptor [4]
  Ki: 0.04 nM
[5]
  Ki: 5 nM
Canine Y5 receptor [6]
  Ki: 6.3 nM
[7]
  Ki: 5 nM

## APLEPEYPGDNATPEQMAQYAAELRRYINMLTRPRY (peptide, UniProt P01302 30-65, looked up, mature; also called PP, bovine) [bovine PP]
Rat Y1 receptor
  Ki: 120 nM
[5]
  Ki: 8.4 nM
Canine Y5 receptor [6]
  Ki: 10 nM
Human Y5 receptor [8]
  Ki: 5 nM
Human Y5 receptor [9]
  Ki: 1.6 nM
[7]
  Ki: 8.4 nM
Human Y5 receptor [10]
  Ki: 7.9 nM
[11]
  EC50, inhibition of forskolin-stimulated cAMP accumulation, 293 cells: 5.7 nM

## APLEPVYPGDNATPEQMAQYAADLRRYINMITRQRY (peptide, UniProt P01298 30-65, looked up, ends and bridges not checked, mature) [human [Ile^31, Gln^34]PP]
Human Y5 receptor [12]
  EC50, inhibition of forskolin-stimulated cAMP accumulation, LM(tk-) cells: 5.6 nM
Human Y5 receptor [9]
  Ki: 2 nM

## APLEPMYPGDYATHEQRAQYETQLRRYINTLTRPRY (peptide, UniProt P06303 30-65, looked up, mature; also called PP, rat) [rat PP]
Rat Y4 receptor [2]
  Ki: < 0.2 nM
Human Y4 receptor [13]
  Ki: 0.16 nM
Human Y1 receptor [14]
  Ki: 450 nM
Human Y5 receptor [15]
  Ki: 630 nM
Human Y4 receptor [16]
  Ki: 0.16 nM
Human Y1 receptor [17]
  Ki: 450 nM
[3]
  Ki: 180 nM
[5]
  Ki: 230 nM
Canine Y5 receptor [6]
  Ki: 160 nM
Human Y5 receptor [8]
  Ki: 130 nM
Human Y5 receptor [9]
  Ki: 630 nM
[7]
  Ki: 230 nM
[11]
  EC50, inhibition of forskolin-stimulated cAMP accumulation, 293 cells: 130 nM

## FLRF-NH2 [FLRF-amide]
Rat Y1 receptor
  Ki: 45000 nM
[5]
  Ki: 5500 nM
[11]
  EC50, inhibition of forskolin-stimulated cAMP accumulation, 293 cells: 13000 nM

B2: human PP2-36 (peptide, UniProt P01298 31-65, looked up)
peptide: PLEPVYPGDNATPEQMAQYAADLRRYINMLTRPRY
notes: range 2-36; Range counted on the mature peptide
Human Y5 receptor [15]
  Ki: 2.1 nM
Human Y5 receptor [12]
  EC50, inhibition of forskolin-stimulated cAMP accumulation, LM(tk-) cells: 2 nM
Human Y5 receptor [9]
  Ki: 2.1 nM

B3: human PP13-36 (peptide, UniProt P01298 42-65, looked up)
peptide: TPEQMAQYAADLRRYINMLTRPRY
notes: range 13-36; Range counted on the mature peptide
Human Y4 receptor [13]
  Ki: 39 nM
Human Y5 receptor [15]
  Ki: 720 nM
Human Y4 receptor [16]
  Ki: 39 nM
[5]
  Ki: 84 nM
Human Y5 receptor [9]
  Ki: 720 nM
[7]
  Ki: 290 nM

B4: porcine NPY13-36 (peptide, UniProt P01304 22-45, looked up)
peptide: PAEDLARYYSALRHYINLITRQRY
notes: range 13-36; Range counted on the mature peptide; also called NPY13-36, porcine
Rat Y1 receptor
  Ki: 190 nM
Rat Y2 receptor
  Ki: 31 nM
Canine Y5 receptor [6]
  Ki: 120 nM

B5: porcine NPY16-36 (peptide, UniProt P01304 25-45, looked up)
peptide: DLARYYSALRHYINLITRQRY
notes: range 16-36; Range counted on the mature peptide
Rat Y1 receptor
  Ki: 140 nM
Rat Y4 receptor [4]
  Ki: 200 nM
Rat Y2 receptor
  Ki: 35 nM
[5]
  Ki: 260 nM
Human Y5 receptor [8]
  Ki: 180 nM
Human Y5 receptor [9]
  Ki: 300 nM
[7]
  Ki: 260 nM

B6: porcine NPY22-36 (peptide, UniProt P01304 31-45, looked up)
peptide: SALRHYINLITRQRY
notes: range 22-36; Range counted on the mature peptide
Rat Y2 receptor
  Ki: 54 nM

B7: human PYY13-36 (peptide, UniProt P10082 41-64, looked up)
peptide: SPEELNRYYASLRHYLNLVTRQRY
notes: as for B3
Rat Y1 receptor
  Ki: 130 nM

B8: human PP31-36 (peptide, UniProt P01298 60-65, looked up)
peptide: LTRPRY
notes: range 60-65; Range counted on the mature peptide
Rat Y4 receptor [4]
  Ki: 26 nM
Human Y5 receptor [8]
  Ki: 41000 nM

## APSEPHHPGDQATQDQLAQYYSDLYQYITFVTRPRF (ends and bridges not checked) [frog PP (rana temporaria)]
Rat Y1 receptor
  Ki: 720 nM

B9: porcine NPY26-36 (peptide, UniProt P01304 35-45, looked up)
peptide: HYINLITRQRY
notes: range 26-36; Range counted on the mature peptide
Human Y2 receptor [18]
  Ki: 380 nM
Human Y2 receptor [19]
  Ki: 380 nM

Reference: patent US6713265 (SYNAPTIC PHARMACEUTICAL, dated 2004)
